From publication PMC9445877, “Blockade of TMPRSS2-mediated priming of SARS-CoV-2 by lactoferricin” (Frontiers in Immunology, 2022)
“Also recorded” adds a separate entry of the source.

How the values were obtained:
[1] = test system: SARS-CoV-1; details: cited from earlier work
[2] = test system: SARS-CoV-2; details: cited from earlier work
[3] = test system: elastase; test: In vitro proteolysis assay, elastase; assay type: biochemical, porcine; details: elastase 20 nM; 37°C, Tris-HCl buffer, Boc-Gln-Ala-Arg-AMC
Procedure: (§1) Figure 1 Effect of LF and the LF-derived peptides pLF1-pLF3 on the activity of serine proteases. Proteolytic activities of purified TMPRSS2 (A), plasmin (B), elastase (C), and trypsin (D) were measured with or without peptides pLF1, pLF2, pLF3, LF or the control peptide pCTR at 37°C in Tris-HCl buffer using the fluorogenic substrate Boc-Gln-Ala-Arg-AMC. The reaction was monitored using an ELISA reader for the indicated time intervals.
(§2) The proteolytic activities of plasmin (10 nM; from human plasma; #10602361001, Roche Diagnostics GmbH, Mannheim, Germany), trypsin (10 nM; from bovine pancreas; #T1005, Sigma-Aldrich, St. Louis, MO), elastase (20 nM; from porcine pancreas; #E1250, Sigma-Aldrich) and TMPRSS2 (25 nM; recombinant protein produced in mammalian cells; #MBS1193731, MyBioSource, San Diego, CA) were measured in a Nunc black fluorescence-based cell assay plate (Sigma-Aldrich) in Tris-HCl buffer (20 mM, pH 8.0, 150 mM NaCl). […] The reaction was measured using an ELISA plate reader (Synergy H1 BioTek microplate reader, Winooski, Vermont, U.S., or TECAN GENios, GMI, USA) under the excitation wavelength of 380 nm and the emission wavelength of 460 nm at the indicated time points.

[4] = target: T1, TMPRSS2 (Homo sapiens, UniProt O15393); test: In vitro proteolysis assay, TMPRSS2, fluorogenic substrate Boc-Gln-Ala-Arg-AMC; assay type: biochemical
T1 construct: TMPRSS2 (25 nM; recombinant protein produced in mammalian cells; #MBS1193731, MyBioSource, San Diego, CA); purchased MyBioSource, San Diego, CA #MBS1193731; host or cells: mammalian cells
Procedure: as §1, §2

[5] = target: T2, plasmin (Homo sapiens, UniProt P00747); test: In vitro proteolysis assay, plasmin; assay type: biochemical; details: 37°C
T2 construct: purchased Roche Diagnostics GmbH, Mannheim, Germany #10602361001; host or cells: human plasma
Procedure: as §1
as §2, with “points. […]” for “points.”

[6] = test system: SARS-CoV-2 infection, Vero cells; assay type: cell-based, SARS-CoV-2 (African green monkey cells); details: 40 µg/mL, pre-incubation 40-60 min, mean of three independent experiments
[7] = cited from earlier work
[8] = test system: SARS-CoV-2; assay type: cell-based; details: summary statement
[9] = test system: SARS-CoV-2; details: cited from earlier work; remark: listed apart in the source
Text: (§3) The human glycoprotein LF is synthetized by exocrine glands and is present at high concentrations in secretory body fluids, particularly in milk, but also within inflammatory granules of neutrophils. […] This effect was mainly attributed to its immunomodulatory properties ([26]).

[10] = test system: COVID-19; details: supplementary LF treatment; cited from earlier work
Text: as §3

[11] = cited from earlier work; remark: listed apart in the source
[12] = test system: plasminogen; details: cited from earlier work
Text: Since structures of the catalytic domains of serine proteases display a high level of identity ([10]), we have tested the inhibitory effect of LF and three LF-derived synthetic peptides against other serine proteases, including TMPRSS2, elastase and trypsin, in addition to plasmin. […] In contrast, uPA-independent Plg conversion by the bacterial enzyme streptokinase was not affected by LF ([11]). […] Similarly, only pLF1 but neith ...

[13] = test system: SARS-CoV-2 infection, Calu-3 cells; assay type: cell-based, SARS-CoV-2 (human cells); details: concentration not given, pre-incubation approx. 1 h, four independent experiments

T2 sequence (P00747 581-810 limits assumed): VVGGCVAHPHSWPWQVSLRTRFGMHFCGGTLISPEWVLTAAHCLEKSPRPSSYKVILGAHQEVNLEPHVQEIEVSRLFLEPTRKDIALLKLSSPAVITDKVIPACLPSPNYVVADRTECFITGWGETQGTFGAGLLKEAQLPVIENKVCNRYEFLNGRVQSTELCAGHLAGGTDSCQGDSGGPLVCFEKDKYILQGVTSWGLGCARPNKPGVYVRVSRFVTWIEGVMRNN
T2 sequence (P00747 97-580 limits assumed): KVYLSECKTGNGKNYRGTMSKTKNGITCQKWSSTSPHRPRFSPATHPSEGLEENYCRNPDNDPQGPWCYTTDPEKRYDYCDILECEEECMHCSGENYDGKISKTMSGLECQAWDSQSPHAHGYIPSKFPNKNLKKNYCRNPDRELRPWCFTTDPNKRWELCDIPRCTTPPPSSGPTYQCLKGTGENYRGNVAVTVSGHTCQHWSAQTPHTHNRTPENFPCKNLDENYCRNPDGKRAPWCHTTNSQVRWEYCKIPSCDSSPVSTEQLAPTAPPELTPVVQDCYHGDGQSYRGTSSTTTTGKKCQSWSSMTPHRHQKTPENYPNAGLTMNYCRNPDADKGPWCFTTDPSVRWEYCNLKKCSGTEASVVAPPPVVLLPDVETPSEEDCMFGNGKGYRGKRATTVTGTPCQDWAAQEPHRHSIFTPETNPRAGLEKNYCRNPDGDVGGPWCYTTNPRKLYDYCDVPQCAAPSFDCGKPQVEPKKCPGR
T1 sequence (O15393 256-492 limits assumed): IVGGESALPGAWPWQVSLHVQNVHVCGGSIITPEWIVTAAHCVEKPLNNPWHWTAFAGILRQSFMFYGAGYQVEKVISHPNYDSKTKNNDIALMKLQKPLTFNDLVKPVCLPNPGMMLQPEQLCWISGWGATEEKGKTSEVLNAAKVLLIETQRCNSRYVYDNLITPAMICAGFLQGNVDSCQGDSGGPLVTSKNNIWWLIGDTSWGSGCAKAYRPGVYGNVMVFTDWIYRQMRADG
T1 sequence (O15393 106-255 limits assumed): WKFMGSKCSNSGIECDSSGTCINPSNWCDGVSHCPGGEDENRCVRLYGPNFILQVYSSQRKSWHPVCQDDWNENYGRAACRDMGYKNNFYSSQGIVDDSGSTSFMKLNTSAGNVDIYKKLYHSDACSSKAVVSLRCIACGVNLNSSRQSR

B1: LF: human milk glycoprotein lactoferrin; recombinant human LF (L1294, Sigma-Aldrich) (protein, UniProt P02788 1-710, looked up)
chain: MKLVFLVLLFLGALGLCLAGRRRSVQWCAVSQPEATKCFQWQRNMRKVRGPPVSCIKRDSPIQCIQAIAENRADAVTLDGGFIYEAGLAPYKLRPVAAEVYGTERQPRTHYYAVAVVKKGGSFQLNELQGLKSCHTGLRRTAGWNVPIGTLRPFLNWTGPPEPIEAAVARFFSASCVPGADKGQFPNLCRLCAGTGENKCAFSSQEPYFSYSGAFKCLRDGAGDVAFIRESTVFEDLSDEAERDEYELLCPDNTRKPVDKFKDCHLARVPSHAVVARSVNGKEDAIWNLLRQAQEKFGKDKSPKFQLFGSPSGQKDLLFKDSAIGFSRVPPRIDSGLYLGSGYFTAIQNLRKSEEEVAARRARVVWCAVGEQELRKCNQWSGLSEGSVTCSSASTTEDCIALVLKGEADAMSLDGGYVYTAGKCGLVPVLAENYKSQQSSDPDPNCVDRPVEGYLAVAVVRRSDTSLTWNSVKGKKSCHTAVDRTAGWNIPMGLLFNQTGSCKFDEYFSQSCAPGSDPRSNLCALCIGDEQGENKCVPNSNERYYGYTGAFRCLAENAGDVAFVKDVTVLQNTDGNNNEAWAKDLKLADFALLCLDGKRKPVTEARSCHLAMAPNHAVVSRMDKVERLKQVLLHQQAKFGRNGSDCPDKFCLFQSETKNLLFNDNTECLARLHGKTTYEKYLGPQYVAGITNLKKCSTSPLLEACEFLRK
modifications: full-length
In the case of B1, the “SARS-CoV-1 infection (in words)” value [1] is listed as “inhibited the SARS-CoV-1 infection”, the “interferon responses (in words)” value [2] is listed as “enhancement of interferon responses” and the “iron homeostasis (in words)” value [2] is listed as “maintenance of iron homeostasis”. For the same molecule, the “viral replication (in words)” value [2] was “inhibition of viral replication”, the “inhibition of proteolytic activity of elastase (in words)” value [3] was “neither full-length LF nor other tested peptides derived from LF, nor the control peptide pCTR, significantly reduced” and the “inhibition of proteolytic activity of TMPRSS2 (in words)” value ([4]; 37°C, Tris-HCl buffer, Boc-Gln-Ala-Arg-AMC) was “not able to block TMPRSS2 activity; also recorded: neither full-length LF nor pCTR inhibited; also recorded: did not block TMPRSS2 activity; also recorded: neither full-length LF nor other tested peptides derived from LF, nor the control peptide pCTR, significantly reduced”. For the same molecule, the “dose dependence of inhibition of TMPRSS2 (in words)” value ([4]; Figure 1A inset) was “no dose-dependent inhibition; also recorded: not by LF”, the “dose dependence of inhibition of active plasmin (in words)” value ([5]; Figure 1B inset: S-2251 in PBS) was “no dose-dependent inhibition; also recorded: not by LF” and the “inhibition of proteolytic activity of plasmin (in words)” value ([5]; plasmin 10 nM, Tris-HCl buffer, Boc-Gln-Ala-Arg-AMC) was “neither full-length LF nor a control peptide (pCTR), was able to inhibit; also recorded: neither full-length LF nor other tested peptides derived from LF, nor the control peptide pCTR, significantly reduced”. For the same molecule, the “inhibition of SARS-CoV-2 infection, Vero cells, 40 µg/mL” value [6] was “≈ 38%”, the “clinical benefit, oral (in words)” value ([7]; in vivo, po) was “major clinical benefit in human, particularly neonatal medicine” and the “safety, oral (in words)” value ([7]; orally administered) was “considered safe and without adverse effects”. The “SARS-CoV-2 infection of permissive cells (in words)” value [8] was “prevented SARS-CoV-2 infection”, the “SARS-CoV-2 infection in vitro (in words)” value [9] was “found to inhibit SARS-CoV-2 infection in vitro” and the “COVID-19 symptoms in clinical study (in words)” value [10] was “significantly reduced COVID-19 symptoms”. The “binding to heparin and HSPGs (in words)” value [11] was “LF binding to both heparin and HSPGs was observed”, the “binding to plasminogen (in words)” value [12] was “binds to Plg via its highly cationic N-terminal region; also recorded: bound to Plg via its highly cationic N-terminal region” and the “inhibition of plasminogen conversion to plasmin (in words)” value [12] was “able to inhibit activation of Plg through hindering the action of urokinase-type plasminogen activator (uPA); also recorded: blocked Plg conversion to the active serine protease plasmin”. The “uPA-independent plasminogen conversion by streptokinase (in words)” value ([12]; streptokinase as activator) was “not affected” and the “inhibition of SARS-CoV-2 infection, Calu-3 cells” value [13] was 60-70%.
